For one substance, kcat/KM and ratio of kcat/KM, mutant vs wild type results are on record in US20120237496.

The term kcat/KM denotes the turnover number divided by the Michaelis constant.

The test system of data set [1] is Angiotensin (fluorescein/Lys-biotin labelled synthetic peptide).
Data set [2] concerns T1, Somatostatin 1-28 (fluorescein/Lys-biotin labelled synthetic peptide).
T1 sequence: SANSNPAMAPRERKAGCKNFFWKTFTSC

Data set [3] relates to Glucagon (fluorescein/Lys-biotin labelled synthetic peptide).
The subject of data set [4] is GIP (fluorescein/Lys-biotin labelled synthetic peptide).
Data set [5] relates to Neurotensin (fluorescein/Lys-biotin labelled synthetic peptide).
For data set [6], the system named is A-beta 1-40 (fluorescein/Lys-biotin labelled synthetic peptide).
The subject of data set [7] is Bradykinin (fluorescein/Lys-biotin labelled synthetic peptide).
Data set [8] has as its system GLP-1 (fluorescein/Lys-biotin labelled synthetic peptide).
Data set [9] has as its system T2, ANP (fluorescein/Lys-biotin labelled synthetic peptide).
T2 sequence: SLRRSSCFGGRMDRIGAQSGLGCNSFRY

The subject of data set [10] is Endothelin-1 (average of the 1a and 1b isoforms).

GIP (fluorescein/Lys-biotin labelled synthetic peptide), sequence (chain, as listed by the source): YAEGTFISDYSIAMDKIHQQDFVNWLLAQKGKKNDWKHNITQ
Glucagon (fluorescein/Lys-biotin labelled synthetic peptide), sequence (chain, as listed by the source): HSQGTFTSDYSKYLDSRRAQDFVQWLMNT
A-beta 1-40 (fluorescein/Lys-biotin labelled synthetic peptide), sequence (peptide, as listed by the source): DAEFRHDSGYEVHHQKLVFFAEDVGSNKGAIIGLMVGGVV
GLP-1 (fluorescein/Lys-biotin labelled synthetic peptide), sequence (chain, as listed by the source): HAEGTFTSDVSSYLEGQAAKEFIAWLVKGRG

Turning to HSA-Nep-G399V/G714K, the kcat/KM was determined as 14000 M⁻¹ s⁻¹ in data set [1]; 3000 M⁻¹ s⁻¹ in data set [2]; 88000 M⁻¹ s⁻¹ in [3]; 130 M⁻¹ s⁻¹ in [4]; 2600 M⁻¹ s⁻¹ in data set [5]; 55000 M⁻¹ s⁻¹ in [6]. Also, the catalytic efficiency (kcat/KM) in data set [7] was determined as 85 M⁻¹ s⁻¹; in data set [8], 36000 M⁻¹ s⁻¹; in data set [9], 42000 M⁻¹ s⁻¹; in data set [10], 62000 M⁻¹ s⁻¹. The ratio of kcat/KM, mutant vs wild type in data set [1] came out at 0.012; in [2], 0.0054; in [3] it was 0.35; in [4], 0.28; in data set [5], 0.004; in [6] it was 4.2. The ratio of kcat/KM, mutant vs wild type in [7] is 0.00017; in [8], 0.25; in data set [9], 0.15; in [10], 0.21.
